Assay results: patent US20140322129A1 (Genentech, published 2014)
Values belong to the binder of their own block, whether it stands above or below them.

Tests used:
[1] = target: T1, irrelevant (Ig-V)-B7-H4 (Ig-C; D158-G236 including TM/CD D237-K282) chimeric membrane protein (Homo sapiens (Human), UniProt Q7Z7D3 158-282); assay: FACS of Dylight-488 or -650 labelled antibody on 293 cells transiently transfected with construct-88B
T1 construct: Transiently expressed on 293 cells; also called construct-88B; B7-H4 Ig-C domain; not shown: irrelevant Ig-V domain
T1 sequence: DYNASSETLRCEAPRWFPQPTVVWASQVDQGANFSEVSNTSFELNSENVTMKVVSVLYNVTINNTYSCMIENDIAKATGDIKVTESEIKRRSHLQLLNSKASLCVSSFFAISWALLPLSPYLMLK
Description: To determine whether the B7-H4 antibodies bind to either the Ig-V or Ig-C domain of B7-H4, chimeric Ig domain molecules were engineered that contain either a B7-H4 (IgV; G28-F150 including spacer S151-V157)—irrelevant (Ig-C) (construct-88) or an irrelevant (Ig-V)-B7-H4 (Ig-C; D158-G236 including TM/CD D237-K282) (construct-88B) membrane protein using standard molecular cloning methods. N-terminal or cytoplasmic tags were attached to confirm that 293 cells transfected with these constructs express protein on the cell membrane (data not shown). Briefly, 293 cells were transiently transfected with constructs 88 & 88B using polyfect. After 48 hours, the cells were stained with 10 μg/ml of Dylight-488 or -650 labeled ch9B9, ch1D11, ch22C10 or ch32D6 for 30-40 minutes at 4° C., washed and analyzed on a BD FACS calibur.

cynomolgus monkey B7-H4 = target: T2, cynomolgus monkey B7-H4 (cynomolgus monkey, UniProt Q7Z7D3 29-282 (human entry)); assay: FACS titration on 293-cyno B7-H4 cells, geometric mean fluorescence
T2 construct: Expressed on stably transfected 293 cells; also called cyno B7-H4
T2 chain: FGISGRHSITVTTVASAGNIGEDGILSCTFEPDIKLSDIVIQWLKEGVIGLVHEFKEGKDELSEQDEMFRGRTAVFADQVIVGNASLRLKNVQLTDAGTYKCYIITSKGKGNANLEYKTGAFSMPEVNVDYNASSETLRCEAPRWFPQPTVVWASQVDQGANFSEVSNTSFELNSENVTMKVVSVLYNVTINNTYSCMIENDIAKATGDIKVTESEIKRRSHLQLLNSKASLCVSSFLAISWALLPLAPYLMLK
Procedure: The small-scale preps were initially screened by FACS and Scatchard Analyses to determine species-specificity and affinity (Kd) to recombinant and endogenous B7-H4. Initial EC₅₀ and species specificity were determined by incubating different concentrations (0-10 μg/ml) of the humanized variants with 293 cells overexpressing recombinant human-, cynomolgus-, or mouse-B7-H4, and the tumor cell line, MX-1, expressing endogenous human B7-H4, at 4° C. for 40 minutes followed by a wash and staining with a secondary goat-anti-human IgG antibody conjugated to Dylight-650 for 20 minutes at 4° C. The fluorescent signal was acquired with a BD FACS Calibur and EC₅₀ values were determined with the Graph Pad program Prism 4.

- binding result [1]: no binding (tested: 10 ug/ml)
B1: ch22C10 (antibody, human IgG1, V domains shown)
VH: QVQLQQPGAELVKPGTSVKLSCKASGYTFTNFWIHWVIQRPGQGLEWIGEIDPSDSYTNYNQKFKGKATLTVDKSSNTAYMQLSSLTSEDSAVYYCSREITTVDYWGQGTTLTVSS
VL: QIVLTQSPTIMSASPGEKVTLTCSATSSISYMHWYQQKPGTSPKGWIYDTSKLAHGVPARFSGSGSGTSYSLTISSMEAEDAATYYCHQRRSYPFTFGSGTKLEIK
notes: also called chimeric 22C10; ch2210

- binding result [1]: no binding (tested: 10 ug/ml)
B2: ch9B9 (antibody, human IgG1, V domains shown)
VH: QVQLQQSGAELMKPGASVKMSCKATGYTFSSYWIEWVKQRPGHGLEWIGEILPGTSITTYNAKFKVKATFTADTSSNTAYMQLSSLTSEDSAVYFCARYYFGSSSFYFDYWGQGTSLTVSS
VL: QAVVTQESALTTSPGDTVTLTCRSSTGAVTTSNYANWVQEKPDHLFTGLIGGTNNRVPGVPARFSGSLIGDKAALTITGAQTEDEAMYFCALWYNNHWVFGGGTKLE
notes: also called chimeric 9B9

- binding result (cynomolgus monkey B7-H4): binds
B3: hu1D11.v1.8 (antibody, V domains shown)
VH: EVQLVQSGAEVKKPGASVKVSCKASGYTFTSYWIGWVRQAPGQGLEWIGDIYPGGGYTNYNEKFKGRATITRDTSTSTAYLELSSLRSEDTAVYYCARLDGSSYRGAMDSWGQGTLVTVSS
VL: DIQMTQSPSSLSASVGDRVTITCKASQGFNKYVAWYQQKPGKAPKLLIYYTSTLQPGVPSRFSGSGSGRDYTLTISSLQPEDFATYYCLQYGNLLYAFGQGTKVEIKR
notes: also called h1D11.v1.8

- binding result [1]: no binding (tested: 10 ug/ml)
B4: ch1D11 with light chain C43G (antibody, V domains shown)
VH: QVQLQQSGAELVRPGTSVKMSCKASGYTFTSYWIGWAKQRPGHGFEWIGDIYPGGGYTNYNEKFKGKATLTADKSSSTAYMQFSSLTSEDSAIYYCARLDGSSYRGAMDSWGQGTSITVSS
VL: DIQMTQSPSSLSASLGGKVTITCKASQGFNKYVAWYQHKPGQGPRLLIHYTSTLQPGIPARFSGSGSGRDYSFSISNLEPEDSATYFCLQYGNLLYAFGGGTKLEIKR
notes: Dylight-488 or -650 labelled in the assay; also called slightly modified version of ch1D11

- binding result [1]: no binding (tested: 10 ug/ml)
B5: ch32D6 (antibody, human IgG1, V domains shown)
VH: EVQLQQSGPDLVKPGASVKISCKASGYSFTGYYIHWMKQSHGKSLEWIGRVNPNNGDPIYNQKFRGKAILTVDQSSNTAYMELRSLTSEASAVYYCARVLFYYGSPFAYWGQGTLVTVSA
VL: DIVMTQSPSSLIVTAGEKVTMSCRSSQSLFDSGSQRNYLTWFHQKPGRPPKLLIYWASTRESGVPDRFTGSGSGTDFTLTISSVQTEDLAVYFCQNDYSFPFTFGSGTKLEEK
notes: also called chimeric 32D6
